The values that follow are results of earlier work, collected in patent US12509496B2 (Shanghai Minwei Biotechnology Co., LTD, priority 2020, dated 2025).

The conditions of the data set: in the blood; cited from earlier work.

dulaglutide: the half-life in vivo was 108 to 113 h.
